Assay results taken from US20150118747A1, “ELECTROSTRETCHED POLYMER MICROFIBERS FOR MICROVASCULATURE DEVELOPMENT” (The Johns Hopkins University, priority 2013, published 2015).

B1: plasmin: plasmin from human plasma (Athens Research and Technology), enzyme that degrades fibrin (protein, UniProt P00747 20-580; P00747 581-810, looked up)
Plasmin heavy chain A: EPLDDYVNTQGASLFSVTKKQLGAGSIEECAAKCEEDEEFTCRAFQYHSKEQQCVIMAENRKSSIIIRMRDVVLFEKKVYLSECKTGNGKNYRGTMSKTKNGITCQKWSSTSPHRPRFSPATHPSEGLEENYCRNPDNDPQGPWCYTTDPEKRYDYCDILECEEECMHCSGENYDGKISKTMSGLECQAWDSQSPHAHGYIPSKFPNKNLKKNYCRNPDRELRPWCFTTDPNKRWELCDIPRCTTPPPSSGPTYQCLKGTGENYRGNVAVTVSGHTCQHWSAQTPHTHNRTPENFPCKNLDENYCRNPDGKRAPWCHTTNSQVRWEYCKIPSCDSSPVSTEQLAPTAPPELTPVVQDCYHGDGQSYRGTSSTTTTGKKCQSWSSMTPHRHQKTPENYPNAGLTMNYCRNPDADKGPWCFTTDPSVRWEYCNLKKCSGTEASVVAPPPVVLLPDVETPSEEDCMFGNGKGYRGKRATTVTGTPCQDWAAQEPHRHSIFTPETNPRAGLEKNYCRNPDGDVGGPWCYTTNPRKLYDYCDVPQCAAPSFDCGKPQVEPKKCPGR
Plasmin light chain B: VVGGCVAHPHSWPWQVSLRTRFGMHFCGGTLISPEWVLTAAHCLEKSPRPSSYKVILGAHQEVNLEPHVQEIEVSRLFLEPTRKDIALLKLSSPAVITDKVIPACLPSPNYVVADRTECFITGWGETQGTFGAGLLKEAQLPVIENKVCNRYEFLNGRVQSTELCAGHLAGGTDSCQGDSGGPLVCFEKDKYILQGVTSWGLGCARPNKPGVYVRVSRFVTWIEGVMRNN
modifications: plasmin
notes: plasmin from human plasma (Athens Research and Technology), enzyme that degrades fibrin

Columns and labels:
ECFCs [1] = experiment: Actin and microtubule disruption studies, ECFCs on fibrin microfibers; assay type: cell-based, Human; details: for actin and microtubule organization, respectively / wrapping organization of the deposited ECM molecules compared to control cultures: ECFCs seeded on nanopatterned fibrin microfibers; for average angle of ECM orientation or variance of all angles, vs no drug: drug added 24 h after ECFC seeding on fibrin microfibers, 24 and 48 hrs of treatment
Experimental: The cell areas and perimeters were measured by fitting an ellipse to each cell using the LSM 510 software. Cytoskeletal alignment angle was calculated by measuring the angle between the long axis of each ellipse and the longitudinal axis of the microfiber, found by drawing a line at the edges of the microfiber in its image projection. ECM angle of orientation was measured using the LSM 510 software by drawing a line following the ECM deposition and finding the angle between the line and the longitudinal axis of the microfiber. Graphs were plotted with 5-95% confidence intervals. Unpaired two-tailed Welch-corrected t-tests were performed where appropriate (GraphPad Prism® 5.01, GraphPad Software, San Diego, Calif.). Significance levels were determined between samples examined and were set at *p<0.05, **p<0.01, and ***p<0.001.
Cytochalasin D or nocodazole were dissolved in DMSO (Table 1). ECFCs were cultured on Petri dishes (control) or fibrin microfibers in ECFC media with 50 ng/mL of VEGF (Pierce, Rockford, Ill., USA) supplemented with either […] cytochalasin D or […] nocodazole, from either day 0 or day 1 after seeding. F-actin or a-tubulin organization and ECM deposition was analyzed after 1, 2, or 3 days of treatment. Final concentration of DMSO in cell culture medium was kept at 0.1% (v/v). Controls were treated with DMSO alone at the same concentration.

fibrin microfibers = experiment: Plasmin treatment: degradation of fibrin microfibers without cells; assay type: biochemical; details: serum-free media
Experimental: (§1) Fibrin microfibers with or without cells were treated with 15, 1, 0.25, and 0.1 CU/mL plasmin from human plasma (Athens Research and Technology, Athens, Ga.) in DMEM (Life Technologies, Grand Island, N.Y.) for 1, 6, 12, and 24 hrs respectively in a humidified incubator at 37° C. in a 5% CO2 atmosphere. Samples were imaged immediately after treatment.
The fibrin microfiber core was degraded after endothelial cell (EC) layer formation while maintaining both cellular viability and intact ECM organization. Fibrin microfibers without cells were treated with different concentrations of plasmin.

ECFCs [2] = experiment: Live/Dead assay of ECFCs after plasmin treatment; assay type: cell-based; details: for cell viability: confluent ECFCs, data not shown; for live cells: confluent ECFCs in 2D, serum-free
Experimental: as §1
ECFCs cultured in 2D and treated with plasmin were incubated with 2 μM calcein AM and 4 μM ethidium homodimer (Invitrogen) in PBS for 30 min at 37° C. and 5% CO2. Samples were imaged immediately after and the number of live and dead cells was counted using ImageJ (NIH, Bethesda, Md.).

Row | Molecule | actin and microtubule organization, respectively (ECFCs [1]) | wrapping organization of the deposited ECM molecules compared to control cultures (ECFCs [1]) | average angle of ECM orientation or variance of all angles, vs no drug (ECFCs [1]) | time in which plasmin degraded the microfibers (fibrin microfibers; 0.1 CU/mL plasmin) [h] | time in which plasmin degraded the microfibers (fibrin microfibers; 0.25 CU/mL plasmin) [h] | time in which plasmin degraded the microfibers (fibrin microfibers; 1 CU/mL plasmin) [h] | time in which plasmin degraded the microfibers (fibrin microfibers; 15 CU/mL plasmin) | cell viability (ECFCs [2]; 1 hr treatment (15 CU/mL plasmin)) | cell viability (ECFCs [2]; 6 hr treatment (1 CU/mL plasmin)) | live cells (ECFCs [2]; 12 hr treatment (0.25 CU/mL plasmin)) [%] | live cells (ECFCs [2]; 24 hr treatment (0.1 CU/mL plasmin)) [%]
1 | COC(=O)Nc1nc2ccc(C(=O)c3cccs3)cc2[nH]1 [nocodazole] | effectively altered | did not alter | no difference | – | – | – | – | – | – | – | –
2 | C=C1[C@@H](C)[C@H]2[C@H](Cc3ccccc3)NC(=O)[C@]23[C@H](OC(C)=O)/C=C/[C@@](C)(O)C(=O)[C@@H](C)C/C=C/[C@H]3[C@@H]1O [Cytochalasin D] | effectively altered | did not alter | No difference | – | – | – | – | – | – | – | –
3 | B1 | – | – | – | ~24 | ~12 | ~6 | about 1 hrs | poor cell viability | poor cell viability | 80.6±4.3 | 65.2±1.8
